Patent US20090098124A1 (MacroGenics, published 2009)
Positions count from the first letter of the chain named. Numbers in names are those of the source.

T1: soluble dimeric FcγRIIB (extracellular domain fused to hinge-CH2-CH3 of human IgG2) (human, UniProt P31994 43-217)
T1 construct: extracellular domain; also called FcRIIB; FcRIIB-Fc; not shown: human IgG2 hinge-CH2-CH3
T1 sequence (looked up): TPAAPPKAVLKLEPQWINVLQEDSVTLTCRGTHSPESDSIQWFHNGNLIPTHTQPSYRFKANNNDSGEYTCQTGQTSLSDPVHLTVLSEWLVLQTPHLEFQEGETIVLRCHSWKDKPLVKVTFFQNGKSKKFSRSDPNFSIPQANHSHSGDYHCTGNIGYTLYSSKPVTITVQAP

B1: IgG1 Fc mutant A231V, Q386H, V412M (antibody)
heavy: ASTKGPSVFPLAPSSKSTSGGTAALGCLVKDYFPEPVTVSWNSGALTSGVHTFPAVLQSSGLYSLSSVVTVPSSSLGTQTYICNVNHKPSNTKVDKKVEPKSCDKTHTCPPCPVPELLGGPSVFLFPPKPKDTLMISRTPEVTCVVVDVSHEDPEVKFNWYVDGVEVHNAKTKPREEQYNSTYRVVSVLTVLHQDWLNGKEYKCKVSNKALPAPIEKTISKAKGQPREPQVYTLPPSRDELTKNQVSLTCLVKGFYPSDIAVEWESNGHPENNYKTTPPVLDSDGSFFLYSKLTMDKSRWQQGNVFSCSVMHEALHNHYTQKSLSLSPGK
B2: IgG1 Fc mutant K246E, V284M, V308A (antibody)
heavy: B1 heavy with V114A, K129E, V167M, V191A, H269Q, M295V
B3: IgG1 Fc mutant K246R, S298N, I377F (antibody)
heavy: B1 heavy with V114A, K129R, S181N, I260F, H269Q, M295V
B4: IgG1 Fc mutant T335N, K370E, A378V, T394M, S424L (antibody)
heavy: B1 heavy with V114A, T218N, K253E, A261V, H269Q, T277M, M295V, S307L
B5: IgG1 Fc mutant D221E, D270E, V308A, Q311H, P396L, G402D (antibody)
heavy: B1 heavy with D104E, V114A, D153E, V191A, Q194H, H269Q, P279L, G285D, M295V
B6: IgG1 Fc mutant K246I, Q362H, K370E (antibody)
heavy: B1 heavy with V114A, K129I, Q245H, K253E, H269Q, M295V
B7: IgG1 Fc mutant K222N, T335N, K370E, A378V, T394M (antibody)
heavy: B1 heavy with K105N, V114A, T218N, K253E, A261V, H269Q, T277M, M295V
B8: IgG1 Fc mutant P244H, L358M, V379M, N384K, V397M (antibody)
heavy: B1 heavy with V114A, P127H, L241M, V262M, N267K, H269Q, V280M, M295V
B9: IgG1 Fc mutant P247L, I253N, K334N (antibody)
heavy: B1 heavy with V114A, P130L, I136N, K217N, H269Q, M295V
B10: IgG1 Fc mutant F243L, V305I, A378D, F404S, P396L (antibody)
heavy: B1 heavy with V114A, F126L, V188I, A261D, H269Q, P279L, F287S, M295V
B11: IgG1 Fc mutant P247L, A431V, S442F (antibody)
heavy: B1 heavy with V114A, P130L, H269Q, M295V, A314V, S325F
B12: IgG1 Fc mutant P343S, P353L, S375I, S383N (antibody)
heavy: B1 heavy with V114A, P226S, P236L, S258I, S266N, H269Q, M295V
B13: IgG1 Fc mutant T256S, V305I, K334E, N390S (antibody)
heavy: B1 heavy with V114A, T139S, V188I, K217E, H269Q, N273S, M295V
B14: IgG1 Fc mutant K246N, Q419R, P396L (antibody)
heavy: B1 heavy with V114A, K129N, H269Q, P279L, M295V, Q302R
B15: IgG1 Fc mutant K326Q, K334E, T359N, T366S (antibody)
heavy: B1 heavy with V114A, K209Q, K217E, T242N, T249S, H269Q, M295V
B16: IgG1 Fc mutant P247L, A330T, S440G (antibody)
heavy: B1 heavy with V114A, P130L, A213T, H269Q, M295V, S323G
B17: IgG1 Fc mutant K326I, S408N, P396L (antibody)
heavy: B1 heavy with V114A, K209I, H269Q, P279L, S291N, M295V
B18: IgG1 Fc mutant R301H, K340E, D399E (antibody)
heavy: B1 heavy with V114A, R184H, K223E, H269Q, D282E, M295V
B19: IgG1 Fc mutant V397M, T411A, S415N (antibody)
heavy: B1 heavy with V114A, H269Q, V280M, T294A, M295V, S298N
B20: IgG1 Fc mutant A378V, N390I, V422I (antibody)
heavy: B1 heavy with V114A, A261V, H269Q, N273I, M295V, V305I
B21: IgG1 Fc mutant P247L, W313R, E388G (antibody)
heavy: B1 heavy with V114A, P130L, W196R, H269Q, E271G, M295V
B22: IgG1 Fc mutant K334E, T359N, T366S, Q386R (antibody)
heavy: B1 heavy with V114A, K217E, T242N, T249S, H269R, M295V
B23: IgG1 Fc mutant V273I, K326E, L328I, P396L (antibody)
heavy: B1 heavy with V114A, V156I, K209E, L211I, H269Q, P279L, M295V
B24: IgG1 Fc mutant K290T, N390I, P396L (antibody)
heavy: B1 heavy with V114A, K173T, H269Q, N273I, P279L, M295V
B25: IgG1 Fc mutant C229Y, A287T, V379M, P396L, L443V (antibody)
heavy: B1 heavy with C112Y, V114A, A170T, V262M, H269Q, P279L, M295V, L326V
B26: IgG1 Fc mutant K334E, E380D, G446V (antibody)
heavy: B1 heavy with V114A, K217E, E263D, H269Q, M295V, G329V
B27: IgG1 Fc mutant V282E, V369I, L406F (antibody)
heavy: B1 heavy with V114A, V165E, V252I, H269Q, L289F, M295V
B28: IgG1 Fc mutant F275I, K334N, V348M (antibody)
heavy: B1 heavy with V114A, F158I, K217N, V231M, H269Q, M295V
B29: IgG1 Fc mutant F275L, Q362H, N384K, P396L (antibody)
heavy: B1 heavy with V114A, F158L, Q245H, N267K, H269Q, P279L, M295V
B30: IgG1 Fc mutant P291S; K288E; H268L: A141V (antibody)
heavy: B1 heavy with A24V, V114A, H151L, K171E, P174S, H269Q, M295V
B31: IgG1 Fc mutant K290E, V369A, T393A, P396L (antibody)
heavy: B1 heavy with V114A, K173E, V252A, H269Q, T276A, P279L, M295V
B32: IgG1 Fc mutant F243L, R255L, E318K (antibody)
heavy: B1 heavy with V114A, F126L, R138L, E201K, H269Q, M295V
B33: IgG1 Fc mutant E269K, K290N, Q311R, H433Y (antibody)
heavy: B1 heavy with V114A, E152K, K173N, Q194R, H269Q, M295V, H316Y
B34: IgG1 Fc mutant D221Y, M252I, A330G, A339T, T359N, V422I, H433L (antibody)
heavy: B1 heavy with D104Y, V114A, M135I, A213G, A222T, T242N, H269Q, M295V, V305I, H316L
B35: IgG1 Fc mutant V303I, V369F, M428L (antibody)
heavy: B1 heavy with V114A, V186I, V252F, H269Q, M295V, M311L
B36: IgG1 Fc mutant D280E, S354F, A431D, L441I (antibody)
heavy: B1 heavy with V114A, D163E, S237F, H269Q, M295V, A314D, L324I
B37: IgG1 Fc mutant P244A, K326I, C367R, S375I, K447T (antibody)
heavy: B1 heavy with V114A, P127A, K209I, C250R, S258I, H269Q, M295V, K330T

The molecules below were run against soluble dimeric FcγRIIB (extracellular domain fused to hinge-CH2-CH3 of human IgG2) (human) (UniProt P31994) (assay: ELISA).

Binding to FcγRIIB (ELISA) (fold decrease) | Molecule
0.5 | IgG1 Fc mutant D399E, M428L (from UniProt P01857 1-330) (antibody)

Each molecule was assayed against soluble monomeric FcγRIIIA (extracellular region joined to linker-AVITAG), allele not stated (human) (UniProt P08637) (assay: ELISA).
Sequence of soluble monomeric FcγRIIIA (extracellular region joined to linker-AVITAG), allele not stated (human) (P08637 17-208): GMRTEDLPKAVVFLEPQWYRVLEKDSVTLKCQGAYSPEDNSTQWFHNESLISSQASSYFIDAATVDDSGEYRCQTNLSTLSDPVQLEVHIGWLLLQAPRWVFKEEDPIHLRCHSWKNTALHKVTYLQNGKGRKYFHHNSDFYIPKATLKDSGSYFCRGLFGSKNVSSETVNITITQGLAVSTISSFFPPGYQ

Binding to FcγRIIIA (ELISA) (fold increase) | Binding to FcγRIIIA (ELISA) (fold decrease) | Molecule
0.5 |  | IgG1 Fc mutant H310Y; T289A; G337E (from UniProt P01857 1-330) (antibody)
0.5 |  | IgG1 Fc mutant S407I (from UniProt P01857 1-330) (antibody)
 | 0.5 | IgG1 Fc mutant D399E, M428L (from UniProt P01857 1-330) (antibody)
0.5 |  | IgG1 Fc mutant V348M; K334N; F275I; Y202M; K147T (from UniProt P01857 1-330) (antibody)
0.5 |  | IgG1 Fc mutant S298N, S407R (from UniProt P01857 1-330) (antibody)
0.5 |  | IgG1 Fc mutant S383N; N384K; T256N; V262L; K218E; R214I; K205E; F149Y; K133M (from UniProt P01857 1-330) (antibody)
0.5 |  | IgG1 Fc mutant D312E, K327N, I378S (from UniProt P01857 1-330) (antibody)

Each molecule was assayed against T2, soluble monomeric FcγRIIIA (extracellular region joined to linker-AVITAG), allele not stated (human, UniProt P08637 17-208) (assay: ELISA).
T2 construct: extracellular domain; also called FcRIIIA; CD16A; not shown: linker-AVITAG
T2 sequence (P08637 17-208): as above

Binding to FcγRIIIA (ELISA) | binding result | Molecule
1.5 fold increase |  | B1
 | no binding | B2
1 fold increase |  | B3
0.5 fold increase |  | B4
3.6 fold increase |  | B5
 | no binding | B6
1 fold increase |  | B7
1.75 fold increase |  | B8
3 fold increase |  | B9
1.6 fold increase |  | B10
1 fold |  | B11
0.5 fold increase |  | B12
1.5 fold increase |  | B13
1.1 fold increase |  | B14
1.5 fold increase |  | B15
0.75 fold increase |  | B16
4 fold increase |  | B17
0.5 fold decrease |  | B18

Binding to FcγRIIIA (ELISA) | binding result | Molecule
0.25 fold increase |  | B19
0.5 fold increase |  | B20
1.5 fold increase |  | B21
1 fold increase |  | B22
1.3 fold increase |  | B23
2.8 fold increase |  | B24
0.25 fold decrease |  | B25
 | no binding | B26
0.5 fold increase |  | B27
0.5 fold increase |  | B28
2.2 fold increase |  | B29
0.5 fold decrease |  | B30
1.3 fold increase |  | B31
1 fold increase |  | B32
 | no binding | B33
2.5 fold increase |  | B34
 | no binding | B35
3 fold increase |  | B36

These molecules were tested against T1, soluble dimeric FcγRIIB (extracellular …) (assay: ELISA).

Binding to FcγRIIB (ELISA) | binding result | Molecule
6 fold increase |  | B1
 | no binding | B2
5 fold increase |  | B3
0.1 fold increase |  | B5
0.5 fold decrease |  | B6
7 fold increase |  | B7
1.5 fold increase |  | B8
2.5 fold increase |  | B9
5.4 fold increase |  | B10
6 fold increase |  | B12
4.8 fold increase |  | B14
5 fold increase |  | B15
3 fold increase |  | B37
0.25 fold decrease |  | B16
9.3 fold increase |  | B17
0.25 fold decrease |  | B18
5 fold increase |  | B19
5 fold increase |  | B20
1 fold increase |  | B21
10.8 fold increase |  | B23
6.1 fold increase |  | B24
10 fold increase |  | B25
 | no binding | B26
7 fold increase |  | B27
3.7 fold increase |  | B29
6.7 fold increase |  | B31
 | no binding | B33
6 fold increase |  | B34
 | no binding | B35
